Assay results: patent US20250339531A1, “DUX4 POLYPEPTIDES AND NUCLEIC ACIDS FOR TREATING INFLAMMATORY AND AUTOIMMUNE CONDITIONS” (Fred Hutchinson Cancer Center, priority 2021, published 2025)

Test system: proteins that co-immunoprecipitated with DUX4-CTD constructs expressed in MB135 myoblasts
Experiment: LC-MS of proteins co-immunoprecipitated with DUX4-CTD (Table 1) and western validation
Type: binding, human
Parameters: key to 4. mL1dL2 + Dox + IFNG / 4. + IFNG mix / 4. longCTD + Dox + IFNG / 3. + IFNg + Dox longCTD / 3. + Dox longCTD / 3. + IFNG longCTD: peptide-spectrum matches (PSMs) per protein
Details: for 4. longCTD + Dox + IFNG: LC-MS counts of the listed protein co-immunoprecipitated with DUX4-CTD bait longCTD, experiment 4, Dox + IFNG; for 3. + Dox longCTD / 3. + IFNg + Dox longCTD / 3. + IFNG longCTD: bait longCTD; for 3. + Dox longCTD: experiment 3, Dox only; for 3. + IFNg + Dox longCTD: experiment 3, IFNg + Dox; for SUM of PSMS: sum over all samples; for 3. + IFNG longCTD: experiment 3, IFNG only, no doxycycline (bait at background level)
Procedure, shortened: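 Two independent experiments compared uninduced, doxycycline and doxycycline+IFNG MB135iDUX4-CTD (plus MB135iDUX4mL1dL2) myoblasts. Anti-FLAG pulldowns (3 h, 4 °C) were eluted in LDS buffer for western validation or with FLAG peptide for trypsin digestion and Orbitrap LC-MS; hits needed ≥2 PSMs in both experiments, ranked by total PSMs.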

Molecule | 4. longCTD + Dox + IFNG | 3. + Dox longCTD | 3. + IFNg + Dox longCTD | SUM of PSMS | 3. + IFNG longCTD | 4. mL1dL2 + Dox + IFNG (LC-MS value per protein co-immunoprecipitated with DUX4-CTD construct mL1dL2 in MB135 myoblasts, + Dox + IFNG, kind of count not given)
O75083 (protein, UniProt O75083 1-606, looked up, full-length) MPYEIKKVFASLPQVERGVSKIIGGDPKGNNFLYTNGKCVILRNIDNPALADIYTEHAHQVVVAKYAPSGFYIASGDVSGKLRIWDTTQKEHLLKYEYQPFAGKIKDIAWTEDSKRIAVVGEGREKFGAVFLWDSGSSVGEITGHNKVINSVDIKQSRPYRLATGSDDNCAAFFEGPPFKFKFTIGDHSRFVNCVRFSPDGNRFATASADGQIYIYDGKTGEKVCALGGSKAHDGGIYAISWSPDSTHLLSASGDKTSKIWDVSVNSVVSTFPMGSTVLDQQLGCLWQKDHLLSVSLSGYINYLDRNNPSKPLHVIKGHSKSIQCLTVHKNGGKSYIYSGSHDGHINYWDSETGENDSFAGKGHTNQVSRMTVDESGQLISCSMDDTVRYTSLMLRDYSGQGVVKLDVQPKCVAVGPGGYAVVVCIGQIVLLKDQRKCFSIDNPGYEPEVVAVHPGGDTVAIGGVDGNVRLYSILGTTLKDEGKLLEAKGPVTDVAYSHDGAFLAVCDASKVVTVFSVADGYSENNVFYGHHAKIVCLAWSPDNEHFASGGMDMMVYVWTLSDPETRVKIQDAHRLHHVSSLAWLDEHTLVTTSHDASVKEWTITY | 11 | 1 | 2 | 16 |  | 
Q14247 (protein, UniProt Q14247 1-550, looked up, full-length) MWKASAGHAVSIAQDDAGADDWETDPDFVNDVSEKEQRWGAKTVQGSGHQEHINIHKLRENVFQEHQTLKEKELETGPKASHGYGGKFGVEQDRMDKSAVGHEYQSKLSKHCSQVDSVRGFGGKFGVQMDRVDQSAVGFEYQGKTEKHASQKDYSSGFGGKYGVQADRVDKSAVGFDYQGKTEKHESQRDYSKGFGGKYGIDKDKVDKSAVGFEYQGKTEKHESQKDYVKGFGGKFGVQTDRQDKCALGWDHQEKLQLHESQKDYKTGFGGKFGVQSERQDSAAVGFDYKEKLAKHESQQDYSKGFGGKYGVQKDRMDKNASTFEDVTQVSSAYQKTVPVEAVTSKTSNIRANFENLAKEKEQEDRRKAEAERAQRMAKERQEQEEARRKLEEQARAKTQTPPVSPAPQPTEERLPSSPVYEDAASFKAELSYRGPVSGTEPEPVYSMEAADYREASSQQGLAYATEAVYESAEAPGHYPAEDSTYDEYENDLGITAVALYDYQAAGDDEISFDPDDIITNIEMIDDGWWRGVCKGRYGLFPANYVELRQ | 5 |  | 1 | 6 |  | 
Q13409 (protein, UniProt Q13409 1-638, looked up, full-length) MSDKSELKAELERKKQRLAQIREEKKRKEEERKKKETDQKKEAVAPVQEESDLEKKRREAEALLQSMGLTPESPIVFSEYWVPPPMSPSSKSVSTPSEAGSQDSGDGAVGSRTLHWDTDPSVLQLHSDSDLGRGPIKLGMAKITQVDFPPREIVTYTKETQTPVMAQPKEDEEEDDDVVAPKPPIEPEEEKTLKKDEENDSKAPPHELTEEEKQQILHSEEFLSFFDHSTRIVERALSEQINIFFDYSGRDLEDKEGEIQAGAKLSLNRQFFDERWSKHRVVSCLDWSSQYPELLVASYNNNEDAPHEPDGVALVWNMKYKKTTPEYVFHCQSAVMSATFAKFHPNLVVGGTYSGQIVLWDNRSNKRTPVQRTPLSAAAHTHPVYCVNVVGTQNAHNLISISTDGKICSWSLDMLSHPQDSMELVHKQSKAVAVTSMSFPVGDVNNFVVGSEEGSVYTACRHGSKAGISEMFEGHQGPITGIHCHAAVGAVDFSHLFVTSSFDWTVKLWTTKNNKPLYSFEDNADYVYDVMWSPTHPALFACVDGMGRLDLWNLNNDTEVPTASISVEGNPALNRVRWTHSGREIAVGDSEGQIVIYDVGEQIAVPRNDEWARFGRTLAEINANRADAEEEAATRIPA | 4 |  | 1 | 5 |  | 
P07437 (protein, UniProt P07437 1-444, looked up, full-length) MREIVHIQAGQCGNQIGAKFWEVISDEHGIDPTGTYHGDSDLQLDRISVYYNEATGGKYVPRAILVDLEPGTMDSVRSGPFGQIFRPDNFVFGQSGAGNNWAKGHYTEGAELVDSVLDVVRKEAESCDCLQGFQLTHSLGGGTGSGMGTLLISKIREEYPDRIMNTFSVVPSPKVSDTVVEPYNATLSVHQLVENTDETYCIDNEALYDICFRTLKLTTPTYGDLNHLVSATMSGVTTCLRFPGQLNADLRKLAVNMVPFPRLHFFMPGFAPLTSRGSQQYRALTVPELTQQVFDAKNMMAACDPRHGRYLTVAAVFRGRMSMKEVDEQMLNVQNKNSSYFVEWIPNNVKTAVCDIPPRGLKMAVTFIGNSTAIQELFKRISEQFTAMFRRKAFLHWYTGEGMDEMEFTEAESNMNDLVSEYQQYQDATAEEEEDFGEEAEEEA | 110 | 41 | 75 | 315 | 14 | 
Q13885 (protein, UniProt Q13885 1-445, looked up, full-length) MREIVHIQAGQCGNQIGAKFWEVISDEHGIDPTGSYHGDSDLQLERINVYYNEAAGNKYVPRAILVDLEPGTMDSVRSGPFGQIFRPDNFVFGQSGAGNNWAKGHYTEGAELVDSVLDVVRKESESCDCLQGFQLTHSLGGGTGSGMGTLLISKIREEYPDRIMNTFSVMPSPKVSDTVVEPYNATLSVHQLVENTDETYSIDNEALYDICFRTLKLTTPTYGDLNHLVSATMSGVTTCLRFPGQLNADLRKLAVNMVPFPRLHFFMPGFAPLTSRGSQQYRALTVPELTQQMFDSKNMMAACDPRHGRYLTVAAIFRGRMSMKEVDEQMLNVQNKNSSYFVEWIPNNVKTAVCDIPPRGLKMSATFIGNSTAIQELFKRISEQFTAMFRRKAFLHWYTGEGMDEMEFTEAESNMNDLVSEYQQYQDATADEQGEFEEEEGEDEA | 99 | 35 | 61 | 208 | 13 | 
Q9BUF5 (protein, UniProt Q9BUF5 1-446, looked up, full-length) MREIVHIQAGQCGNQIGTKFWEVISDEHGIDPAGGYVGDSALQLERINVYYNESSSQKYVPRAALVDLEPGTMDSVRSGPFGQLFRPDNFIFGQTGAGNNWAKGHYTEGAELVDAVLDVVRKECEHCDCLQGFQLTHSLGGGTGSGMGTLLISKIREEFPDRIMNTFSVMPSPKVSDTVVEPYNATLSVHQLVENTDETYCIDNEALYDICFRTLKLTTPTYGDLNHLVSATMSGVTTSLRFPGQLNADLRKLAVNMVPFPRLHFFMPGFAPLTSRGSQQYRALTVPELTQQMFDARNMMAACDPRHGRYLTVATVFRGPMSMKEVDEQMLAIQSKNSSYFVEWIPNNVKVAVCDIPPRGLKMASTFIGNSTAIQELFKRISEQFSAMFRRKAFLHWFTGEGMDEMEFTEAESNMNDLVSEYQQYQDATANDGEEAFEDEEEEIDG | 46 | 20 | 39 | 128 |  | 
SF3B3 (protein) MFLYNLTLQRATGISFAIHGNFSGTKQQEIVVSRGKILELLRPDPNTGKVHTLLTVEVFGVIRSLMAFRLTGGTKDYIVVGSDSGRIVILEYQPSKNMFEKIHQETFGKSGCRRIVPGQFLAVDPKGRAVMISAIEKQKLVYILNRDAAARLTISSPLEAHKANTLVYHVVGVDVGFENPMFACLEMDYEEADNDPTGEAAANTQQTLTFYELDLGLNHVVRKYSEPLEEHGNFLITVPGGSDGPSGVLICSENYITYKNFGDQPDIRCPIPRRRNDLDDPERGMIFVCSATHKTKSMFFFLAQTEQGDIFKITLETDEDMVTEIRLKYFDTVPVAAAMCVLKTGFLFVASEFGNHYLYQIAHLGDDDEEPEFSSAMPLEEGDTFFFQPRPLKNLVLVDELDSLSPILFCQIADLANEDTPQLYVACGRGPRSSLRVLRHGLEVSEMAVSELPGNPNAVWTVRRHIEDEFDAYIIVSFVNATLVLSIGETVEEVTDSGFLGTTPTLSCSLLGDDALVQVYPDGIRHIRADKRVNEWKTPGKKTIVKCAVNQRQVVIALTGGELVYFEMDPSGQLNEYTERKEMSADVVCMSLANVPPGEQRSRFLAVGLVDNTVRIISLDPSDCLQPLSMQALPAQPESLCIVEMGGTEKQDELGERGSIGFLYLNIGLQNGVLLRTVLDPVTGDLSDTRTRYLGSRPVKLFRVRMQGQEAVLAMSSRSWLSYSYQSRFHLTPLSYETLEFASGFASEQCPEGIVAISTNTLRILALEKLGAVFNQVAFPLQYTPRKFVIHPESNNLIIIETDHNAYTEATKAQRKQQMAEEMVEAAGEDERELAAEMAAAFLNENLPESIFGAPKAGNGQWASVIRVMNPIQGNTLDLVQLEQNEAAFSVAVCRFSNTGEDWYVLVGVAKDLILNPRSVAGGFVYTYKLVNNGEKLEFLHKTPVEEVPAAIAPFQGRVLIGVGKLLRVYDLGKKKLLRKCENKHIANYISGIQTIGHRVIVSDVQESFIWVRYKRNENQLIIFADDTYPRWVTTASLLDYDTVAGADKFGNICVVRLPPNTNDEVDEDPTGNKALWDRGLLNGASQKAEVIMNYHVGETVLSLQKTTLIPGGSESLVYTTLSGGIGILVPFTSHEDHDFFQHVEMHLRSEHPPLCGRDHLSFRSYYFPVKNVIDGDLCEQFNSMEPNKQKNVSEELDRTPPEVSKKLEDIRTRYAF |  |  |  |  |  | 10
P68366 (protein, UniProt P68366 1-448, looked up, full-length) MRECISVHVGQAGVQMGNACWELYCLEHGIQPDGQMPSDKTIGGGDDSFTTFFCETGAGKHVPRAVFVDLEPTVIDEIRNGPYRQLFHPEQLITGKEDAANNYARGHYTIGKEIIDPVLDRIRKLSDQCTGLQGFLVFHSFGGGTGSGFTSLLMERLSVDYGKKSKLEFSIYPAPQVSTAVVEPYNSILTTHTTLEHSDCAFMVDNEAIYDICRRNLDIERPTYTNLNRLISQIVSSITASLRFDGALNVDLTEFQTNLVPYPRIHFPLATYAPVISAEKAYHEQLSVAEITNACFEPANQMVKCDPRHGKYMACCLLYRGDVVPKDVNAAIAAIKTKRSIQFVDWCPTGFKVGINYQPPTVVPGGDLAKVQRAVCMLSNTTAIAEAWARLDHKFDLMYAKRAFVHWYVGEGMEEGEFSEAREDMAALEKDYEEVGIDSYEDEDEGEE | 16 | 14 | 39 | 69 |  | 
